# Assay results: paper PMC6891087
# What was measured:
# [1] = target: unmodified nucleosome core particle (human | Xenopus laevis) (UniProt P04908); assay: SPR; biotinylated NCPs immobilised (~500 RU) on a streptavidin chip, BIAcore T200; analytes 7.8 to 1,000 nM; 8°C; 25 mM Hepes, 250 mM NaCl, 1 mM DTT, 0.05% Tween-20, pH 8; steady-state 1:1 fit
# [2] = tested on: CPC_LM (Borealin-Survivin-INCENP1-58); assay: SPR; settings: SPR: 25 mM Hepes pH 8, 250 mM NaCl, 1 mM DTT, 0.05% Tween-20, 8 C, EMSA: 10 mM Tris pH 7.5, 100 mM NaCl, 1 mM MgCl2, 1 mM DTT, 1% glycerol, 0.1 mg/ml BSA, 20 nM
# CPC_LM BOR K12/R17/K20E = assay: SPR; settings: SPR: 25 mM Hepes pH 8, 250 mM NaCl, 1 mM DTT, 0.05% Tween-20, 8 C, EMSA: 10 mM Tris pH 7.5, 100 mM NaCl, 1 mM MgCl2, 1 mM DTT, 1% glycerol, 0.1 mg/ml BSA, 20 nM
# CPC_LM BOR 10-end = assay: SPR; settings: SPR: 25 mM Hepes pH 8, 250 mM NaCl, 1 mM DTT, 0.05% Tween-20, 8 C; EMSA: 10 mM Tris pH 7.5, 100 mM NaCl, 1 mM MgCl2, 1 mM DTT, 1% glycerol, 0.1 mg/ml BSA, 20 nM
# CPC_LM BOR K198/T199E = assay: SPR; settings: SPR: 25 mM Hepes pH 8, 250 mM NaCl, 1 mM DTT, 0.05% Tween-20, 8 C; EMSA: 10 mM Tris pH 7.5, 100 mM NaCl, 1 mM MgCl2, 1 mM DTT, 1% glycerol, 0.1 mg/ml BSA, 20 nM
# CPC_LM delta110-188 = assay: SPR; settings: SPR: 25 mM Hepes pH 8, 250 mM NaCl, 1 mM DTT, 0.05% Tween-20, 8 C; EMSA: 10 mM Tris pH 7.5, 100 mM NaCl, 1 mM MgCl2, 1 mM DTT, 1% glycerol, 0.1 mg/ml BSA, 20 nM
# CPC_LM delta189-206 = assay: SPR; settings: SPR: 25 mM Hepes pH 8, 250 mM NaCl, 1 mM DTT, 0.05% Tween-20, 8 C; EMSA: 10 mM Tris pH 7.5, 100 mM NaCl, 1 mM MgCl2, 1 mM DTT, 1% glycerol, 0.1 mg/ml BSA, 20 nM
# [3] = target: nucleosome core particle with histone H3 phosphorylated at Thr3 (human | not stated | Xenopus laevis) (UniProt P04908); assay: SPR; biotinylated NCPs immobilised (~500 RU) on a streptavidin chip, BIAcore T200; analytes 7.8 to 1,000 nM; 8°C; 25 mM Hepes, 250 mM NaCl, 1 mM DTT, 0.05% Tween-20, pH 8; steady-state 1:1 fit
# CPC_LM BOR delta-loop = assay: SPR; settings: apparent, from normalized response; >=20 in review history; SPR: 25 mM Hepes pH 8, 250 mM NaCl, 1 mM DTT, 0.05% Tween-20, 8 C; EMSA: 10 mM Tris pH 7.5, 100 mM NaCl, 1 mM MgCl2, 1 mM DTT, 1% glycerol, 0.1 mg/ml BSA, 20 nM
# Sumo-Borealin110-206 = assay: SPR; settings: apparent, from normalized response; SPR: 25 mM Hepes pH 8, 250 mM NaCl, 1 mM DTT, 0.05% Tween-20, 8 C; EMSA: 10 mM Tris pH 7.5, 100 mM NaCl, 1 mM MgCl2, 1 mM DTT, 1% glycerol, 0.1 mg/ml BSA, 20 nM
# Sumo-Borealin189-206 = assay: SPR; settings: apparent, from normalized response; SPR: 25 mM Hepes pH 8, 250 mM NaCl, 1 mM DTT, 0.05% Tween-20, 8 C; EMSA: 10 mM Tris pH 7.5, 100 mM NaCl, 1 mM MgCl2, 1 mM DTT, 1% glycerol, 0.1 mg/ml BSA, 20 nM
# Sumo-Borealin110-188 = assay: SPR; settings: apparent, from normalized response; SPR: 25 mM Hepes pH 8, 250 mM NaCl, 1 mM DTT, 0.05% Tween-20, 8 C; EMSA: 10 mM Tris pH 7.5, 100 mM NaCl, 1 mM MgCl2, 1 mM DTT, 1% glycerol, 0.1 mg/ml BSA, 20 nM
# [4] = histone H3 phospho-T3 (native chemical ligation; C110A, residue 32 C)
substance,measurement,setting,value
CPC_LM containing Borealin 10-end (from UniProt Q53HL2 10-280; O15392 1-142; Q9NQS7 1-58) (complex),Kd,[1],860 nM
CPC_LM containing Borealin lacking the N-terminal half of the loop (residues 110-188) (from UniProt Q53HL2 1-280; O15392 1-142; Q9NQS7 1-58) (complex),Kd,[1],1800 nM
H3T3ph NCP (601),Kd,[2]; [4],103 nM
same,Kd,CPC_LM BOR K12/R17/K20E; [4],672 nM
unmodified NCP (601),Kd,CPC_LM BOR 10-end,860 nM
same,Kd,[2],295 nM
same,Kd,CPC_LM BOR K198/T199E,400 nM
same,Kd,CPC_LM delta110-188,1800 nM
same,Kd,CPC_LM delta189-206,260 nM
same,Kd,CPC_LM BOR K12/R17/K20E,528 nM
CPC localization module (Borealin-Survivin-INCENP 1-58) (from UniProt Q53HL2 1-280; O15392 1-142; Q9NQS7 1-58) (complex),Kd,[3],103 nM
same,Kd,[1],295 nM
same,stoichiometry N (CPC LM dimer per NCP),[1],1
CPC_LM containing Borealin K12/R17/K20E (from UniProt Q53HL2 1-280; O15392 1-142; Q9NQS7 1-58) (complex),Kd,[1],528 nM
DNA (SPR ligand; presumably 601),Kd,CPC_LM BOR delta-loop,20000 nM
same,Kd,Sumo-Borealin110-206,5000 nM
same,Kd,"[2]; apparent, from normalized response, >=5 in review history",5000 nM
same,Kd,Sumo-Borealin189-206,20000 nM
same,Kd,Sumo-Borealin110-188,10000 nM
CPC_LM containing Borealin lacking the C-terminal half of the loop (residues 189-206) (from UniProt Q53HL2 1-280; O15392 1-142; Q9NQS7 1-58) (complex),Kd,[1],260 nM
